± gives the uncertainty stated by the source.
Assay: amyloid nucleation score (Sup35N fusion, yeast selection) (log enrichment); library NNK2; higher = more nucleation; inactive = no reads after selection
How it was run: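 Libraries of peptides of 20 random codons fused to Sup35N were expressed in psi-negative yeast and induced 24 hours with 100 μM copper sulfate. Selection was 7 days at 30°C on medium lacking adenine and uracil, and plasmid inserts were Illumina-sequenced before and after selection. Nucleation score is the DiMSum log enrichment of output over input reads, centred on the mode score of non-aggregating sequences, and sequences with under 100 input reads were left out.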

Row | Substance | amyloid nucleation score
1 | DTILWRSSHAEGTEAWHMGF | 1.28 ± 0.38
2 | DTRVSFRFMVTYLIMVYRFL | 0.774 ± 0.22
3 | DTYDSCMSSVMISFR | 0.343 ± 0.51
4 | DVAIRVYYMYMYERYVTRLF | inactive
5 | DVFWYDATTRYGGRCRGQIS | 1.11 ± 0.31
6 | DVLLVLHVIWCICYPLGVVS | 0.429 ± 0.4
7 | DVMSSPGVSFITTVAFDVC | 0.382 ± 0.8
8 | DVREFSSDYSQVGVEVLVFL | 0.373 ± 0.42
9 | DVRRLLFLLLGQ | -0.796 ± 0.4
10 | DVSESRSTVDGSDNEGWLTD | 0.299 ± 0.42
11 | DWRLARLSSVRFLNGIDCDF | 0.015 ± 0.56
12 | DWRRWM | 0.422 ± 0.5
13 | DWSVKCGVMERI | -0.295 ± 0.4
14 | DYDGTPGCVEKSTIIFMV | inactive
15 | DYFAIRWGQVT | inactive
16 | DYGWKLMVKVDWFLNGHQ | 4.39 ± 0.048
17 | DYLVRGQEY | 0.357 ± 0.43
18 | DYLVSMTVNSASLFRYIERR | 5.209 ± 0.029
19 | DYQGGCSILTSEDEPYEVAC | 1.56 ± 0.44
20 | DYSFGMSCLEDIFREHEILG | -0.879 ± 1.1
21 | DYWLMEWMRYVHRLVGNCWY | -0.959 ± 1.1
22 | EACRLYHRVVKAFGEARCSV | 0.518 ± 0.28
23 | EADLYSTAIQLDK | -0.313 ± 0.44
24 | EARILIKLLI | 2.58 ± 0.091
25 | EAYVHGMR | 1.07 ± 0.25
26 | ECVDCESIEMEAVSC | 1.26 ± 0.16

Row | Substance | amyloid nucleation score
27 | ECYETRTSMEY | -0.102 ± 0.56
28 | EDDVSYNSFSGQASLWKFPK | -0.818 ± 0.56
29 | EDIWEMRSLHLWLSCSGWTD | 2.27 ± 0.15
30 | EDRNSAFAWSSH | 3.54 ± 0.14
31 | EDSPKFKGGPGIYHSVVLVG | 0.394 ± 0.27
32 | EDWNPSTMFVRFWYNSACWY | 0.204 ± 0.6
33 | EFFALMDARVFVSVMLQEVD | -0.268 ± 0.63
34 | EFSSTTSALGKDVRVFNFAI | -1.26 ± 0.62
35 | EFWVLNYVITNLHWQTYSIM | -1.29 ± 1
36 | EGLQFRCLRNSEILVCGYFS | 0.466 ± 0.54
37 | EGSNYYTMVV | inactive
38 | EHLGIIAIRCAQIHKFLPEL | 0.539 ± 0.36
39 | EIHYMCELIMQWVYSGLTSR | 0.607 ± 0.35
40 | EIMCLHKNALCFQCSTSGCA | 7.52 ± 0.046
41 | EITFLCSGKSDSDMYVGFAS | 2.08 ± 0.072
42 | EIWRFLQHRGIYYFFWSFEK | inactive
43 | EKFYLDLG | -0.006 ± 0.54
44 | EKLWIMLTLICNIVRSPSYK | -0.515 ± 1.1
45 | EKYRGSLMSRLAKMWNCCVT | 1.04 ± 0.27
46 | ELFRDNTGSSVVGNSRSSDA | 0.438 ± 0.17
47 | ELFTLGLEGALEVNELKLKY | 0.782 ± 0.18
48 | ELKVMGYMCPL | 0.801 ± 0.82
49 | ELTGYT | -0.388 ± 0.56
50 | EMVSLCSSRFRRMMGACLGT | 1.39 ± 0.21
51 | EMYKQVRFVVIGIIC | 1.21 ± 0.24
52 | ENCLESWTCI | -1.08 ± 0.78

Row | Substance | amyloid nucleation score
53 | ENIISERAFS | inactive
54 | ENLYGFWYLTRCRMF | -0.096 ± 0.39
55 | ENQPVELSTTRDTRAGMSDT | inactive
56 | ENSFLVRKTSH | -0.262 ± 0.36
57 | EPCNTNIK | -0.553 ± 0.29
58 | EPFSNEWWLMGVRPHLICRV | 0 ± 0.37
59 | EPMKSFSHNCLTQIST | -0.557 ± 1.1
60 | ERSVDYSLTL | -0.43 ± 0.45
61 | ERVNKFLWGGFSERLRLMSQ | 0.51 ± 0.65
62 | ERYIRF | 0.187 ± 0.32
63 | ESFAFELTVLHIS | 1.11 ± 0.38
64 | ESGCRHYLCLGATTIVMDS | 6.619 ± 0.049
65 | ESGFGMSSNWKPERNFW | inactive
66 | ESGVHWENTEVKGIYSYLCR | inactive
67 | ESISTVITLRGLMLITTGYN | 4.12 ± 0.097
68 | ESLKINASSEQSRLVTRDTQ | -0.191 ± 0.61
69 | ESYLFAWDNGMFYIANDLEF | 0.494 ± 0.8
70 | ETFNCNFVWL | 4.83 ± 0.1
71 | ETLSQIMFYVKIIAYDCRNP | 2.66 ± 0.13
72 | ETPIIRDQYKLGYNLRTSVL | inactive
73 | ETRGNRPF | 0.88 ± 0.33
74 | ETSFSTVRRQILSLLRLVSS | 0.326 ± 0.33
75 | ETVDSESFSGCGIVFLRGSN | -0.908 ± 0.78
76 | EVDVIS | -0.885 ± 0.64
77 | EVGILVTVVYSGKWKVSRCM | 1.87 ± 0.48
78 | EVSTWQLPMNTDTVEGGSVV | 1.16 ± 0.25

Row | Substance | amyloid nucleation score
79 | EVWRWIFNHGLPRHAGHIVA | 0.312 ± 0.43
80 | EVWYSPDLTLLVYPTPR | 1.46 ± 0.4
81 | EVYYTSMERCGG | 1.36 ± 0.22
82 | EWDVLGLRGRANN | 1.36 ± 0.35
83 | EWNAKLWSLPSGATGCKSQS | 1.16 ± 0.2
84 | EYIYLNLYISDNLYSSGKSG | 2.88 ± 0.16
85 | EYLTNVMVRGDYFGWDHAIA | -0.949 ± 0.63
86 | EYMPP | 0.924 ± 0.16
87 | EYTHRSERFIMGNVISKVRM | 0.255 ± 0.49
88 | EYYLSVYSYYCYCLTCMFVI | 3.46 ± 0.15
89 | FACIGGVLHAGGGVGAIGA | 0.69 ± 0.42
90 | FAFVYSNHFGQMCYRNVCLS | inactive
91 | FAQPHGCNKMCFCSLRFQYL | 3.21 ± 0.12
92 | FASLFPKAPERTEVSEPYRR | -0.76 ± 0.5
93 | FASRLNWVEIHTMYGGLS | 0.209 ± 0.32
94 | FATKRERNVWFMSIEWFVRG | -0.707 ± 0.44
95 | FCALPWGFFGYMGNLNLYSD | 2.62 ± 0.083
96 | FCCARILVNVSCVGATCGMC | 8.258 ± 0.043
97 | FCFSLCWDIFNVLSVFGYNF | -0.793 ± 1
98 | FCGISSR | -0.411 ± 0.56
99 | FCGYSAVVSRAGGCTNLSDE | inactive
100 | FCHRRRYIFIWNIRCLSYLN | inactive
101 | FCKHFYVLREHIKWADSFLM | inactive
102 | FCKRKVTCVVY | -0.538 ± 0.45
103 | FCLALWWHYKFVLWFRNN | -0.836 ± 0.37
104 | FCLFQRDKTHSVWMGLKKFQ | -1.06 ± 0.78

Row | Substance | amyloid nucleation score
105 | FCLVEVWRIYVVCWPWSVGR | 0.743 ± 0.47
106 | FCLYFSKNF | 3.63 ± 0.13
107 | FCPLLPVRFHV | -0.533 ± 0.61
108 | FCPVFST | -0.127 ± 1
109 | FCTHSQARDQVNSNHTMALL | 2.84 ± 0.064
110 | FCWLCFIRSEV | 0.554 ± 0.81
111 | FCWSCWLFQDCSYVVIGREV | 8.556 ± 0.048
112 | FDDEMVRCIFNYRLSGYRPL | 1.47 ± 0.22
113 | FDFRNGCGNTKVEFSMHRSG | 2.86 ± 0.21
114 | FDGLHVYQCWTPVNIARVEE | 0.099 ± 0.62
115 | FDMLVNGHVIYRNRKSSSYI | 0.216 ± 0.62
116 | FDQLPRVFNYRLAILWAVYR | -0.627 ± 0.79
117 | FDSFPSS | 0.529 ± 0.2
118 | FDSLAKLFSRIVLLLLLNDR | -0.032 ± 1.1
119 | FDSSSESLGKGKCY | 0.225 ± 0.49
120 | FDTLKLCSMWDLCCHITRVA | 5.904 ± 0.044
121 | FEAVDWFKL | -0.603 ± 0.74
122 | FECVAFSAV | -0.272 ± 0.28
123 | FEGCCWVVGLLRLSG | 8.713 ± 0.077
124 | FEVDVA | inactive
125 | FEWWTSMGGGECVQRNNSVA | 0.697 ± 0.41
126 | FFDNPMHKTYSGSAARARLS | -0.375 ± 0.24

Reference: the supplement of paper PMC12042874
